Assay results reported in patent publication US20070014736A1, “Methods of delivering corticotroph-derived glycoprotein hormone” (priority 2005, published 2007).

Assays:
[1] = tested on: LPS-induced mild endotoxemia mouse model; test: LPS-induced mild endotoxemia mouse model, serum cytokines; format: in vivo, mice
Method: An in vivo experiment was designed to examine the effect of CGH in a mouse model of LPS-induced mild endotoxemia. This model mimics acute endotoxemia/sepsis by challenging mice with a low, non-lethal dose of bacterial endotoxin (lipopolysaccharide, LPS). Serum is collected at various timepoints (1-8 hours) after intraperitoneal LPS injection and analyzed for altered expression of a wide variety of pro- and anti-inflammatory cytokines and acute phase proteins that mediate the inflammatory response. The model provides a means to assess the potential anti-inflammatory effects of therapeutic candidates during a robust inflammatory response. To initially assess the model, we measured proinflammatory cytokines in a pilot experiment to collect reference data for the model.
C57B1/6 mice (Charles River Laboratories; 5 mice/group) were treated i.p. with PBS, 0.2 mg/kg CGH in PBS, or 2 mg/kg CGH in PBS 1 hour prior to LPS challenge. The mice were then challenged with 25 ug of LPS i.p. and bled at 1 hour and 4 hours after LPS injection. Serum was analyzed for TNF[…] (1 hour) and IL-6 (4 hours) levels by ELISA.
To determine if CGH would potentiate the effect of a sub-maximal dose of glucocorticoid, groups of 10 C57B1/6 mice each were treated i.p. with PBS, 0.15 or 1.5 mg/kg Dex, 2 mg/kg CGH, or a combination of CGH and low or high doses of Dex, 1 hour prior to injection of 25 ug LPS i.p. As shown in TABLE 3 (Expt #2), either 2 mg/kg CGH or 1.5 mg/kg Dex treatment alone (1 hour prior to LPS) caused a significant drop in serum TNFα levels at 1 hour, as observed in previous experiments. The effects of CGH administered in conjunction with Dex on inhibition of TNFα production were greater than either dose of Dex alone.

obese male ob/ob mice = test: Chronic 28-day treatment of ob/ob mice; format: in vivo
Method: Summary: CGH was administered daily for 28 days to obese male ob/ob mice. Mice were also treated with vehicle saline and thyroxine. Data was obtained for food intake, blood glucose, serum insulin, serum lipids, and serum thyroid hormone levels. At sacrifice, animals were examined for changes in liver pathology, and gross histology. […] Evaluation of liver histology sections was performed to examine the effect of CGH-mediated lipolysis on liver steatosis.
11-week old male ob/ob mice were individually caged and given a standard lab chow (4% fat) with free access to food and water. Animals were assigned to a treatment group (n=7−8, average weight 54.3±0.3 g/group), kept on a 12 hour dark cycle (6 PM to 6 AM), and injected each day between 7 and 9 AM. Chow consumed by each animal was weighed twice weekly. All animals received treatments IP in an injection volume of 0.1 ml. CGH was administered at 250 μg/kg, dissolved in sterile saline. Thyroxine (T4) was administered at 1.5 μg/mouse for 4 days, reduced to 1 μg/mouse for 10 days, and returned to 1.5 μg/mouse for the next 14 days. The vehicle controls received sterile saline. TSH was obtained from Genzyme Pharmaceuticals (Thyrogen®, Catalog number 36778; Genzyme Corporation, Cambridge, Mass.), and T4 obtained from Calbiochem, Inc. (EMD Biosciences, catalog number 61205, San Diego, Calif.) All blood draws were performed by retro-orbital puncture under isoflurane anesthesia.
After 25 days of treatment as described above, blood was sampled from all treated animals, serum separated, and analyzed for total T4 by a commercially available kit (Biocheck, Burlingame, Calif.). After 25 days of treatment, the vehicle T4 levels were 5.14±0.08 μg/dl. The CGH-treated group had T4 levels of 7.25±1.2 μg/dl, and the thyroxine-treated group had T4 levels of 9.04±0.47 μg/dl.
Subject animals were fasted for 4 hours at the beginning of the light cycle, and serum was obtained at treatment day 25 under isoflurane anesthesia. Serum Glucose levels were determined with the Cholestech LDX blood analyzer (Cholestech Corporation, Hayward Calif.), and serum insulin levels by ELISA. Serum glucose levels for vehicle and thyroxine treated groups were 306±22 and 295±23 mg/dl, respectively. […] Serum insulin levels for the vehicle and thyroxine treated groups were 33.5±1.8 and 25.9±1.7 ng/ml, respectively.
Subject animals were fasted for 4 hours at the beginning of the light cycle, and serum was obtained at treatment day 25 under isoflurane anesthesia. Triglyceride and total cholesterol levels were determined with the Cholestech LDX blood analyzer. Serum triglyceride levels for the vehicle controls were 143.7±23 mg/dl. […] Total cholesterol levels in the vehicle-treated and thyroxine-treated groups were 198±13 and 194±15 mg/dl, respectively.
Liver sections were dissected from all treatment groups described above and mounted in paraffin following fixation with NBS-formalin. Sections were mounted and stained with hematotoxylin and eosin (H&E) for visualization of hepatic structural changes. The extent of liver steatosis was evaluated on a four-point scale, from 0 to 3, with zero displaying no signs of liver steatosis, and a […], represented pronounced macrovesicular and microvesicular steatosis. […] Average scores given to the groups were vehicle (4), thyroxine (3), and CGH (1.5). […] The CGH treated sections appear to have regained hallmarks of normal hepatocyte architecture in only 28 days of treatment, with areas containing hepatocytes without lipid-laden inclusions in the cytoplasm of the cell.

[2] = Expt 1, 0.2 mg/kg CGH i.p. 1 hr prior to LPS
[3] = Expt 1, 2 mg/kg CGH i.p. 1 hr prior to LPS

B1: CGH: heterodimeric protein hormone comprised of alpha subunit GPHA2 and beta subunit GPHB5, recombinantly produced in CHO cells (protein)
chain 1: QEAVIPGCHLHPFNVTVRSDRQGTCQGSHVAQACVGHCESSAFPSRYSVLVASGYRHNITSVSQCCTISGLKKVKVQLQCVGSRREELEIFTARACQCDMCRLSRY
chain 2: ASSGNLRTFVGCAVREFTFLAKKPGCRGLRITTDACWGRCETWEKPILEPPYIEAHHRVCTYNETKQVTVKLPNCAPGVDPFYTYPVAIRCDCGACSTATTECETI
For B1, the “reduction of TNFα induction” value ([1]; 2 mg/kg CGH, 1 hour time point, Expt 1) was “about 60%”, the “increase of serum IL-6 levels” value ([1]; 2 mg/kg CGH, 4 hour time point, Expt 1) was “about 70%” and the “IL-6, 4 hours” value [1, 2] was 49.7 ± 3.1 ng/mL. For the same molecule, the “TNFα, 1 hour” value [1, 2] was 3916 ± 1057 pg/mL, the “IL-6, 4 hours” value [1, 3] was 71.1 ± 12.9 ng/mL and the “TNFα, 1 hour” value [1, 3] was 2290 ± 530 pg/mL. The “IL-6, 4 hours” value ([1]; Expt 2, 2 mg/kg CGH) was 57.1 ± 16.2 ng/mL, the “TNFα, 1 hour” value ([1]; Expt 2, 2 mg/kg CGH) was 2274 ± 524 pg/mL and the “liver steatosis average score” value (obese male ob/ob mice; H&E liver sections, 28 days, n=4) was 1.5. The “serum total T4 levels” value (obese male ob/ob mice; after 25 days of treatment) was 7.25 ± 1.2 µg/dL, the Serum glucose levels (obese male ob/ob mice; day 25, fasted 4 hours) was 251 ± 10 mg/dL and the Serum insulin levels (obese male ob/ob mice; day 25, fasted 4 hours) was 14.2 ± 3.6 ng/mL. The Serum triglyceride levels (obese male ob/ob mice; day 25, fasted 4 hours) was 100 ± 14.7 mg/dL, the Total cholesterol levels (obese male ob/ob mice; day 25, fasted 4 hours) was 104 ± 8.8 mg/dL and the Food intake (obese male ob/ob mice; ob/ob mice, CGH 250 μg/kg IP daily, T4 1-1.5 μg/mouse) was 6.3±0.09 grams/day of chow.
